# In IntAct's records for PubMed 17167421:
# Molecular target: syt2_rat Syt2 (UniProt P29101)
row,Substance,effect of a mutation on the interaction
1,Botulinum neurotoxin type B (Clostridium botulinum) (from UniProt P10844) K1192E,decreasing interaction strength
2,Botulinum neurotoxin type B (Clostridium botulinum) (from UniProt P10844) F1204A,disrupting interaction strength
3,Botulinum neurotoxin type B (Clostridium botulinum) (from UniProt P10844) F1194A,disrupting interaction strength
4,Botulinum neurotoxin type B (Clostridium botulinum) (from UniProt P10844) V1118D,decreasing interaction strength
